# Measurements taken from patent US20230257444A1, “FUSION PROTEIN AND COMBINATIONS THEREOF” (Agency for Science, Technology and Research, priority 2020, published 2023).
# Legend:
# Test in all cases: Surface plasmon resonance: binding to immobilised Fc receptor
# FcRn = target: T1, FcRn (Homo sapiens, UniProt P55899); details: SPR
# T1 construct: soluble ectodomains of FcR from R&D Systems; purchased R&D Systems 8639-FC-050
# Source text: (§1) A BIAcore T200 SPR Biosensors (GE Healthcare) was used to assay the interaction of soluble ectodomains of FcR from R&D Systems with hDectin1-Fc and IgG1. Amine coupling via N-hydroxysuccinimide ester was formed on a CM5 sensor chip surface according to a procedure recommended by the manufacturer. Ectodomains were immobilized at acidic pH, resulting in the following densities: FcγRI (#1257-FC-050): 1919 RU, FcγRIIa (#1330-CD-050/CF):1766 RU, FcγRIIb/c (#1875-CD-050): 1972 RU, FcγRIIIa (#4325-FC-050): 2275 RU, FcγRIIIb (#1597-FC-050/CF): 2393 RU, FcRn (#8639-FC-050): 2836. A range of hDectin1-Fc/IgG1 concentrations was injected into flow cells at a flow rate of […], with a contact and dissociation time of 300 and 900 seconds, respectively. After each assay cycle, the sensor chip surface was regenerated using 10 mM NaOH. Binding response was recorded as resonance units (RU; 1 RU=1 pg/mm^2) continuously, with background binding automatically subtracted. Due to the polyclonal nature of the hDectin1-Fc/IgG1 recombinant proteins used, kinetic constants (kon, koff, t1/2) were not determined, and the KD was calculated by analyzing the concentration-dependence of the steady-state signal reached at the end of the injection using BIA evaluation version 3 software (GE Healthcare) and Scrubber version 2 software (BioLogic Software, Campbell, Australia). The steady-state response was plotted against the concentration of hDectin1-Fc/IgG1 and fitted using Origin software.
# (§2) Antibody mediated immune activation depends on the strength of binding and affinity of the Fc to the various Fcγ receptors. Binding to the neonatal receptor FcRn is also important for the half-life in serum and the transcytosis across endothelial cells into various tissues. Surface plasmon resonance was used to evaluate the binding of the Immunoglobulin G's Fc of hDectin1-Fc to the various Fc receptors (FcγRI, FcγRIIa, FcγRIIb, FcγRIIIa, FcγRIIIb and FcRn) present on immune cells by flowing free hDectin1-Fc of various concentrations over immobilised Fc receptors (FIG. 11A-F). […] High affinity FcγRI(CD64) is expressed on macrophages, monocytes and neutrophils and low affinity FcγRIIIa (CD16a) is expressed on natural killer cells, monocytes, macrophages and neutrophils. Both CD64 and CD16a activating receptors have Immunoreceptor Tyrosine based Activation Motif (ITAM) signalling domain. FcγRI strongly binds IgG opsonized targets to trigger phagocytosis and a proinflammatory response of TNFα, IFNγ and production of oxidative species. FcγRIIIa likewise activate degranulation, phagocytosis, and oxidative burst.
# FcγRI = target: T2, FcγRI (Homo sapiens, UniProt P12314); details: SPR
# T2 construct: soluble ectodomains of FcR from R&D Systems; purchased R&D Systems 1257-FC-050
# Source text: as §1, §2
# FcγRIIIa = target: T3, FcγRIIIa (Homo sapiens, UniProt P08637, F176V); details: SPR
# T3 construct: soluble ectodomains of FcR from R&D Systems; purchased R&D Systems 4325-FC-050
# Source text: as §1, §2
# FcγRIIIb = target: T4, FcγRIIIb (Homo sapiens, UniProt O75015); details: SPR, steady state
# T4 construct: soluble ectodomains of FcR from R&D Systems; purchased R&D Systems 1597-FC-050/CF
# Source text: as §1, §2
# FcγRIIa = target: T5, FcγRIIa (Homo sapiens, UniProt P12318, H167R); details: SPR, steady state
# T5 construct: soluble ectodomains of FcR from R&D Systems; purchased R&D Systems 1330-CD-050/CF
# T5 sequence (P12318 34-217 H167R limits assumed): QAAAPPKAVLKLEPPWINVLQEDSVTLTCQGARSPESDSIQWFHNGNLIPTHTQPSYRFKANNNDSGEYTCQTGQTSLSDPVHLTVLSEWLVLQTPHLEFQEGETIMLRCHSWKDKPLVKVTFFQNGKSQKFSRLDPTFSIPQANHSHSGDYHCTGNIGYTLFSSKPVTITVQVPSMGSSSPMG
# Source text: as §1, §2
# FcγRIIb = target: T6, FcγRIIb (Homo sapiens, UniProt P31994); details: SPR, steady state
# T6 construct: soluble ectodomains of FcR from R&D Systems; purchased R&D Systems 1875-CD-050
# T6 sequence (P31994 43-217 limits assumed): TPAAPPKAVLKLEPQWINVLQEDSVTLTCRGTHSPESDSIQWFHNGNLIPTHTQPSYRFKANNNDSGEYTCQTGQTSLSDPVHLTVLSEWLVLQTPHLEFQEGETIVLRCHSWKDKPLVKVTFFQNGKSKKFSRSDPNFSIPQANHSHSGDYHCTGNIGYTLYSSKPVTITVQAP
# Source text: as §1, §2
# T3 sequence (P08637 17-208 F176V limits assumed): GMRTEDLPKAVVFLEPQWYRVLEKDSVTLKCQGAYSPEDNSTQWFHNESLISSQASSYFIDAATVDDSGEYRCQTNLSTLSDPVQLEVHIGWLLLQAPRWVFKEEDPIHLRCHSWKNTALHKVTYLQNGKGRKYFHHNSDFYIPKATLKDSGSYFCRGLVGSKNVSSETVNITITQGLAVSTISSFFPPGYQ
# T1 sequence (P55899 24-297 limits assumed): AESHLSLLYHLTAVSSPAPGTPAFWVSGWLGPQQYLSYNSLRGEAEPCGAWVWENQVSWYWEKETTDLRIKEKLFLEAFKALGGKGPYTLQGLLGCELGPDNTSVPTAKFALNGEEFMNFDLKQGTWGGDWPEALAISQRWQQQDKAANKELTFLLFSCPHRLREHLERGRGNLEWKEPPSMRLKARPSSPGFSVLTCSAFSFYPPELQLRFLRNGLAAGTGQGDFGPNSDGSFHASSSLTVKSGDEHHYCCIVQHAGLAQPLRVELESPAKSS
# T1 sequence (P61769 21-119 partner): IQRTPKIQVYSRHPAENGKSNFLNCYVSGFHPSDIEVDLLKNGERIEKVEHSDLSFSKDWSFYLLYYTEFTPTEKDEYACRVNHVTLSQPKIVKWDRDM
# T2 sequence (P12314 16-292 limits assumed): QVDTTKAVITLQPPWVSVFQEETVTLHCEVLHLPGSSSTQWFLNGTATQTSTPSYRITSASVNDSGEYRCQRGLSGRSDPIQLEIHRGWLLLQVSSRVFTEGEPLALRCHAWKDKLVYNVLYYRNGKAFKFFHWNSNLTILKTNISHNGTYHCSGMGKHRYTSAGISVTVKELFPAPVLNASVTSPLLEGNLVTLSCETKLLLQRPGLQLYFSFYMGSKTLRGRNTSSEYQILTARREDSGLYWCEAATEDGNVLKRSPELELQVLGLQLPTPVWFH
# T4 sequence (O75015 17-200 limits assumed): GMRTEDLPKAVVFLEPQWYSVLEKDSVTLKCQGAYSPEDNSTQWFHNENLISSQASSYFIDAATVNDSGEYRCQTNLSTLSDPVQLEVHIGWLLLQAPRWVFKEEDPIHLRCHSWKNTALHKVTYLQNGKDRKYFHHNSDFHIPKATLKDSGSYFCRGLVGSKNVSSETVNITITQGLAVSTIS
substance,measurement,setting,value
hDectin1-Fc: soluble dimeric fusion protein: human Dectin-1 receptor polypeptide (aa 73-247) fused to human IgG1 Fc via hinge; SEQ ID NO: 5,KD for FcRn compared with Herceptin,FcRn,moderately weaker binding
same,binding to FcRn (Binding Constant KD screen),FcRn; steady state,able to interact with and bind to
same,KD for FcγRI compared with Herceptin,FcγRI,moderately weaker binding
same,binding to FcγRI (Binding Constant KD screen),FcγRI; steady state,able to interact with and bind to
same,KD for FcγRIIIa compared with Herceptin,FcγRIIIa,moderately weaker binding
same,binding to FcγRIIIa (Binding Constant KD screen),FcγRIIIa; steady state,able to interact with and bind to
same,binding to FcγRIIIb (Binding Constant KD screen),FcγRIIIb,"bind to FcγRI, FcγRIIIa and FcRn only"
same,binding to FcγRIIa (Binding Constant KD screen),FcγRIIa,"bind to FcγRI, FcγRIIIa and FcRn only"
same,binding to FcγRIIb (Binding Constant KD screen),FcγRIIb,"bind to FcγRI, FcγRIIIa and FcRn only"
